One assay concerns the target antithrombin (UniProt P01008). The experiment in a line: SPR. For orientation: SPR reads the build-up and loss of mass on a sensor chip optically.
Assay [1] deals with tissue factor pathway inhibitor alpha (human) (UniProt P10646). Description: SPR.
Sequence of UniProt P10646 (P10646 29-304): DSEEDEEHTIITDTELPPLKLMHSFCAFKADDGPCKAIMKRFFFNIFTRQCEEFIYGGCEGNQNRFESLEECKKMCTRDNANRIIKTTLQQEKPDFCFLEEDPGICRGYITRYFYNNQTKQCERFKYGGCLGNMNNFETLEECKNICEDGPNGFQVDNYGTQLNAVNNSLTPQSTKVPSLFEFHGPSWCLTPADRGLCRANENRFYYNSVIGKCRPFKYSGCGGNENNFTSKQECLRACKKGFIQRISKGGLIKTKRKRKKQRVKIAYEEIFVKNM

Sequence of UniProt P01008 (P01008 33-464): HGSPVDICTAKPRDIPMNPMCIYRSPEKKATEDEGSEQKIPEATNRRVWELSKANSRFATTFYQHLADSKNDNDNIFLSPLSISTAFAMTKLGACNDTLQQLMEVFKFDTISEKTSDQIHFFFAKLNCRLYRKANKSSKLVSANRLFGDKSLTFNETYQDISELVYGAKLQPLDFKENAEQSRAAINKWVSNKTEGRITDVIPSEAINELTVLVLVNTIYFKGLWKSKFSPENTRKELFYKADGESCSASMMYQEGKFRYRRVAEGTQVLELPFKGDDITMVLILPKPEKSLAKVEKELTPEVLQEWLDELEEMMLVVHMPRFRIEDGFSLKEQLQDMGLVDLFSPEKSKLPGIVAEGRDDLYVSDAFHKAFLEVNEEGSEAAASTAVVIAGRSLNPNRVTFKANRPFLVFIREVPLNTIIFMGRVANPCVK

Regarding “K96YS195A GD-FXa (from UniProt P00742 82-182; P00742 235-488) (domain or fragment)”, in the assay with antithrombin, the Kd was found to be 460 nM.

On to “S195A Gla-domainless factor Xa (from UniProt P00742 82-182; P00742 235-488) (domain or fragment)”, for which the dissociation constant Kd with antithrombin worked out at 416 nM; in assay [1], 2 nM.

One may read the Kd as the free concentration of one partner at which half of the binding sites on the other are occupied at equilibrium, for simple one-to-one binding.

(Values after article PMC10568284.)
